This test has as its target Cohesin-human OX40 ectodomain protein (human) (UniProt P43489). The test is described as follows: SPR, antibody captured on protein A, soluble cohesin-human OX40 ectodomain injected. (SPR reads the build-up and loss of mass on a sensor chip optically.)

By Kd is commonly meant the concentration at which binding is half-saturated. Broadly, the koff is a measure of how fast the partners let go of each other. By kon is commonly meant a measure of how fast the partners come together. A low value points to slower complex formation.

UniProt P43489, sequence (P43489 26-211 limits assumed, form in doubt): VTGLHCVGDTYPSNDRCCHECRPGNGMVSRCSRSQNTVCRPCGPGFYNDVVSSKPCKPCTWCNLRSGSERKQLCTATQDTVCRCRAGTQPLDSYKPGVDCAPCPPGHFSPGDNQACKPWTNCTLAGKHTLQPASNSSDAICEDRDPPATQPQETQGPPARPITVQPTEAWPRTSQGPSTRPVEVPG

B1: humanized anti OX40 Ab24 IgG1 (antibody, V domains shown)
VH: QVQLQESGPGLVKPSQTLSLTCAVYGGSFSSGYWNWIRKHPGKGLEYIGYISYNGITYHNPSLKSRITINRDTSKNQYSLQLNSVTPEDTAVYYCARYKYDYDGGHAMDYWGQGTLVTVSS
VL: DIQMTQSPSSLSASVGDRVTITCRASQDISNYLNWYQQKPGKAPKLLIYYTSKLHSGVPSRFSGSGSGTDYTLTISSLQPEDFATYYCQQGSALPWTFGQGTKVEIKR
Regarding B1, the Kd is 131 nM, the bracketed ratio of KD relative to Anti-OX40 IgG1 came to 1, the bracketed ratio of Ka relative to Anti-OX40 IgG1 was 1 and the bracketed ratio of kd relative to Anti-OX40 IgG1 amounted to 1. The molecule also yielded a koff of 0.0019 s⁻¹ and an on-rate constant (kon) of 14000 M⁻¹ s⁻¹.

(Values after US20230183366A1.)
